Among the data in paper PMC7865074 are NLR(NS5) - NLR(NS5ΔPBM) values, retold here.

Sequences and labels used below:
B1: Membrane-associated guanylate kinase, WW and PDZ domain-containing protein 2, PDZ domain 1 (N2H construct) (domain or fragment)
chain: ESVIGRNPEGQLGFELKGGAENGQFPYLGEVKPGKVAYESGSKLVSEELLLEVNETPVAGLTIRDVLAVIKHCKDPLRLKCVKQG
B2: Rho guanine nucleotide exchange factor 12, PDZ domain (N2H construct) (domain or fragment)
chain: CVIIQKDDNGFGLTVSGDNPVFVQSVKEDGAAMRAGVQTGDRIIKVNGTLVTHSNHLEVVKLIKSGSYVALTVQGRPPGS
B3: MPDZ, PDZ domain 6 (N2H construct) (domain or fragment)
chain: TINIAKGNSSLGMTVSANKDGLGMIVRSIIHGGAISRDGRIAIGDCILSINEESTISVTNAQARAMLRRHSLIGPDIKITYV
B4: SH3 and multiple ankyrin repeat domains protein 1, PDZ domain (N2H construct) (domain or fragment)
chain: TVLLQKKDSEGFGFVLRGAKAQTPIEEFTPTPAFPALQYLESVDEGGVAWRAGLRMGDFLIEVNGQNVVKVGHRQVVNMIRQGGNTLMVKVVMVT
B5: Ligand of Numb protein X 2, PDZ domain 2 (N2H construct) (domain or fragment)
chain: QVALHKRDSGEQLGIKLVRRTDEPGVFILDLLEGGLAAQDGRLSSNDRVLAINGHDLKYGTPELAAQIIQASGERVNLTIARPG
B6: PDZ and LIM domain protein 1, PDZ domain (N2H construct) (domain or fragment)
chain: TQQIDLQGPGPWGFRLVGGKDFEQPLAISRVTPGSKAALANLCIGDVITAIDGENTSNMTHLEAQNRIKGCTDNLTLTVARSE
B7: PDZ domain-containing protein 2, PDZ domain 2 (N2H construct) (domain or fragment)
chain: KMELLKESDGLGIQVSGGRGSKRSPHAIVVTQVKEGGAAHRDGRLSLGDELLVINGHLLVGLSHEEAVAILRSATGMVQLVVASKE
B8: Protein piccolo, PDZ domain (N2H construct) (domain or fragment)
chain: RIKITRDSKDHTVSGNGLGIRIVGGKEIPGHSGEIGAYIAKILPGGSAEQTGKLMEGMQVLEWNGIPLTSKTYEEVQSIISQQSGEAEICVRLDL
B9: MAGUK p55 subfamily member 5, PDZ domain (N2H construct) (domain or fragment)
chain: IVRIEKARDIPLGATVRNEMDSVIISRIVKGGAAEKSGLLHEGDEVLEINGIEIRGKDVNEVFDLLSDMHGTLTFVLIPSQ
B10: PDZ domain-containing protein GIPC3, PDZ domain (N2H construct) (domain or fragment)
chain: EVEVTKTEDALGLTITDNGAGYAFIKRIKEGSIINRIEAVCVGDSIEAINDHSIVGCRHYEVAKMLRELPKSQPFTLRLVQ
B11: Whirlin, PDZ domain 3 (N2H construct) (domain or fragment)
chain: LVRVKKSAATLGIAIEGGANTRQPLPRIVTIQRGGSAHNCGQLKVGHVILEVNGLTLRGKEHREAARIIAEAFKTKDRDYIDFL
B12: Partitioning defective 3 homolog B, PDZ domain 1 (N2H construct) (domain or fragment)
chain: TRTVEISGEGGPLGIHVVPFFSSLSGRILGLFIRGIEDNSRSKREGLFHENECIVKINNVDLVDKTFAQAQDVFRQAMKSPSVLLHVLP
B13: 26S proteasome non-ATPase regulatory subunit 9, PDZ domain (N2H construct) (domain or fragment)
chain: QARDMAEAHKEAMSRKLGQSESQGPPRAFAKVNSISPGSPASIAGLQVDDEIVEFGSVNTQNFQSLHNIGSVVQHSEGKPLNVTVIRR
B14: PDZ domain-containing protein 4, PDZ domain (N2H construct) (domain or fragment)
chain: EVELYKSSHRDKLGLMVCYRTDDEEDLGIYVGEVNPNSIAAKDGRIREGDRIIQINGVDVQNREEAVAILSQEENTNISLLVARP
B15: SH3 and multiple ankyrin repeat domains protein 3, PDZ domain (N2H construct) (domain or fragment)
chain: VAVLQKRDHEGFGFVLRGAKAETPIEEFTPTPAFPALQYLESVDVEGVAWRAGLRTGDFLIEVNGVNVVKVGHKQVVALIRQGGNRLVMKVVSVT
B16: Rho GTPase-activating protein 21, PDZ domain (N2H construct) (domain or fragment)
chain: TVTLKRTSQGFGFTLRHFIVYPPESAIQFSYKDEENGNRGGKQRNRLEPMDTIFVKQVKEGGPAFEAGLCTGDRIIKVNGESVIGKTYSQVIALIQNSDTTLELSVMPKD
B17: Regulating synaptic membrane exocytosis protein 2, PDZ domain (N2H construct) (domain or fragment)
chain: DGSVPRDSGAMLGLKVVGGKMTESGRLCAFITKVKKGSLADTVGHLRPGDEVLEWNGRLLQGATFEEVYNIILESKPEPQVELVVSR
B18: SH3 and multiple ankyrin repeat domains protein 2, PDZ domain (N2H construct) (domain or fragment)
chain: TVVLQKKDNEGFGFVLRGAKADTPIEEFTPTPAFPALQYLESVDEGGVAWQAGLRTGDFLIEVNNENVVKVGHRQVVNMIRQGGNHLVLKVVTVT
B19: Synaptojanin-2-binding protein, PDZ domain (N2H construct) (domain or fragment)
chain: EINLTRGPSGLGFNIVGGTDQQYVSNDSGIYVSRIKENGAAALDGRLQEGDKILSVNGQDLKNLLHQDAVDLFRNAGYAVSLRVQHRL
B20: Zona Occludens 3; Tight Junction Protein 3, PDZ domain 1 (N2H construct) (domain or fragment)
chain: TATLSKDPRRGFGIAISGGRDRPGGSMVVSDVVPGGPAEGRLQTGDHIVMVNGVSMENATSAFAIQILKTCTKMANITVKRPR
B21: Beta-1-syntrophin, PDZ domain (N2H construct) (domain or fragment)
chain: GVKVLKQELGGLGISIKGGKENKMPILISKIFKGLAADQTQALYVGDAILSVNGADLRDATHDEAVQALKRAGKEVLLEVKYMR
B22: Zona Occludens 3; Tight Junction Protein 3, PDZ domain 3 (N2H construct) (domain or fragment)
chain: DTRVVRFLKGKSIGLRLAGGNDVGIFVSGVQAGSPADGQGIQEGDQILQVNDVPFQNLTREEAVQFL
B23: T-lymphoma invasion and metastasis-inducing protein 2, PDZ domain (N2H construct) (domain or fragment)
chain: DVQLTKTGSVCDFGFAVTAQVDERQHLSRIFISDVLPDGLAYGEGLRKGNEIMTLNGEAVSDLDLKQMEALFSEKSVGLTLIARPPD

The target in this assay is full-length (FL) NS5 protein (wt PBM) of West Nile virus (West Nile virus). The assay can be described thus: split reporter (BiFC, NanoBiT); N2H split-NanoLuc in HEK-293T cells; full-length NS5 with 257 single PDZ domains; read-out NLR with NS5 minus NLR with NS5ΔPBM, three experiments; hits > 0.25.
In the case of B1, the NLR(NS5) - NLR(NS5ΔPBM) stood at 0.26.
Consider B2, for which the NLR(NS5) - NLR(NS5ΔPBM) is below 0.25.
For B3 the value was 0.38.
For B4 the value was 1.66; for B5, 0.25; for B6, 27.2.
For B7 the value was 0.49; for B8, 0.57.
With B9, the NLR(NS5) - NLR(NS5ΔPBM) amounted to 0.26.
With B10, the NLR(NS5) - NLR(NS5ΔPBM) came out at 2.15.
For B11 the value was 0.38; for B12, 0.42.
For B13 the value was 1.21.
For B14 the value was 0.85.
Turning to B15, the NLR(NS5) - NLR(NS5ΔPBM) was below 0.25.
For B16 the value was below 0.25; for B17, 11.2; for B18, below 0.25.
Consider B19, for which the NLR(NS5) - NLR(NS5ΔPBM) is below 0.25.
On to B20, for which the NLR(NS5) - NLR(NS5ΔPBM) is 3.05.
For B21, the NLR(NS5) - NLR(NS5ΔPBM) was below 0.25.
Turning to B22, the NLR(NS5) - NLR(NS5ΔPBM) turned out to be 0.72.
As for B23, the NLR(NS5) - NLR(NS5ΔPBM) was determined as 0.65.
